Columns and labels:
[1] = molecular target: T1, LIV-1 expressed on the cell surface of cancer cell lines (human) (UniProt Q13433); assay: flow cytometry, isotype control, HCC 1806 cells (endogenous LIV-1)
T1 sequence (looked up): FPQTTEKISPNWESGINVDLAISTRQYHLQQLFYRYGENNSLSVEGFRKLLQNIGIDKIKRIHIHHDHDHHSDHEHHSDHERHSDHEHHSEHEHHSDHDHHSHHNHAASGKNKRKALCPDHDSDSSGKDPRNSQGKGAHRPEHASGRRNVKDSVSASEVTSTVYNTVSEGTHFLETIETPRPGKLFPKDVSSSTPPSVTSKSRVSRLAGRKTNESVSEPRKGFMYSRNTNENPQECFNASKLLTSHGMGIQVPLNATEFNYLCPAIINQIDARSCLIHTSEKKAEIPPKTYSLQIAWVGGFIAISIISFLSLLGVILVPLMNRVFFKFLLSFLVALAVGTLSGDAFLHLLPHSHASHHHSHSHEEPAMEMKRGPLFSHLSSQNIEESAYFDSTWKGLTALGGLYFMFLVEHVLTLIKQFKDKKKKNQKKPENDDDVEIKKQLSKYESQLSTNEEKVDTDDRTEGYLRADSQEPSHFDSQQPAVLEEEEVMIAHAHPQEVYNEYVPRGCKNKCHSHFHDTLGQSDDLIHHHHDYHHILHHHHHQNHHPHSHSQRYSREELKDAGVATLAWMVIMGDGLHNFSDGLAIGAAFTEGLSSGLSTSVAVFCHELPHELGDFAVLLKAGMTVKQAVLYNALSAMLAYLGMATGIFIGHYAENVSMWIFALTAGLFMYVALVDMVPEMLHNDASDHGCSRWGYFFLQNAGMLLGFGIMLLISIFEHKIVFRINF

[2] = molecular target: T1, LIV-1 expressed on the cell surface of cancer cell lines (human); assay: flow cytometry, isotype control, MCF7-Liv1 #7 cells (high exogenous LIV-1)
[3] = molecular target: T1, LIV-1 expressed on the cell surface of cancer cell lines (human); assay: flow cytometry, isotype control, MCF7-Liv1 #17 cells (high exogenous LIV-1)
[4] = molecular target: T1, LIV-1 expressed on the cell surface of cancer cell lines (human); assay: flow cytometry, isotype control, Calu6 cells (endogenous LIV-1)
[5] = molecular target: T1, LIV-1 expressed on the cell surface of cancer cell lines (human); assay: flow cytometry, isotype control, MCF7-Liv1 #12 cells (moderate exogenous LIV-1)
[6] = molecular target: T1, LIV-1 expressed on the cell surface of cancer cell lines (human); assay: flow cytometry, isotype control, PC-3 cells (endogenous LIV-1)
[7] = tested on: PC3 mouse subcutaneous tumors; assay: PC3 prostate cancer xenograft efficacy study; type: in vivo, CD1 athymic nude mice; conditions: Single dose of 10 mg/kg, intravenous injection
Experimental: (§1) Tumor cells grown in the implantation culture of CD1 athymic nude mice: Calu-6 (2.5 × 10^6 cells in 50% matrigel) from ATCC, PC-3 (2.5 × 10^6 cells) from ATCC, and PA-1 (5 × 10^6 cells in 50% matrigel) from ATCC. Tumor cells grown in the implantation culture of NSG mice: HCC1806 (2.5 × 10^6 cells in 50% matrigel) from ATCC and MCF-7 (10 × 10^6 cells; for the in vivo growth of MCF-7, 8.5 µg/mL estradiol was added to the drinking water of female mice) from NCI.
(§2) When the tumors grew to 150 mm^3, the humanized LIV-1 ADC or the non-binding control ADC (1 mg/kg, 3 mg/kg, 6 mg/kg, or 10 mg/kg) was administered by intravenous injection once every four days for a total of four administrations (q4d × 4), by intravenous injection once every week for a total of 2 administrations (qw × 2), or by single intravenous injection. The tumor volume was monitored using a caliper, and the animals were euthanized when the tumor volume reached about 2000 mm^3. Tumor volume plots were continued for each group until one or more animals were euthanized. All animal procedures were conducted in a facility approved by the Association for Assessment and Accreditation of Laboratory Animal Care in accordance with protocols approved by the Institutional Animal Care and Use Committee. TGI was calculated as follows: TGI (%) = 1−[(Td−T0)/(Cd−C0)] × 100% [formula] […]

[8] = tested on: PA-1 mouse subcutaneous tumors; assay: PA-1 ovarian cancer xenograft efficacy study; type: in vivo, CD1 athymic nude mice; conditions: Single dose of 3 mg/kg, intravenous injection
Experimental: as §1, §2

[9] = molecular target: T1, LIV-1 expressed on the cell surface of cancer cell lines (human); assay: flow cytometry, 10 µg/mL antibody, MCF7-Liv1 #12 cells (moderate exogenous LIV-1)
[10] = molecular target: T1, LIV-1 expressed on the cell surface of cancer cell lines (human); assay: flow cytometry, antibody A against IgG1 isotype control, MCF7-Liv1 #7 cells
[11] = molecular target: T1, LIV-1 expressed on the cell surface of cancer cell lines (human); assay: flow cytometry, antibody A against IgG1 isotype control, HCC 1806 cells
[12] = molecular target: T1, LIV-1 expressed on the cell surface of cancer cell lines (human); assay: flow cytometry, 10 µg/mL antibody, MCF7-Liv1 #7 cells (high exogenous LIV-1)
[13] = molecular target: T1, LIV-1 expressed on the cell surface of cancer cell lines (human); assay: flow cytometry, antibody A against IgG1 isotype control, Calu6 cells
[14] = molecular target: T1, LIV-1 expressed on the cell surface of cancer cell lines (human); assay: flow cytometry, 10 µg/mL antibody, HCC 1806 cells (endogenous LIV-1)
[15] = molecular target: T1, LIV-1 expressed on the cell surface of cancer cell lines (human); assay: flow cytometry, 10 µg/mL antibody, Calu6 cells (endogenous LIV-1)
[16] = molecular target: T1, LIV-1 expressed on the cell surface of cancer cell lines (human); assay: flow cytometry, antibody A against IgG1 isotype control, MCF7-Liv1 #17 cells
[17] = molecular target: T1, LIV-1 expressed on the cell surface of cancer cell lines (human); assay: flow cytometry, antibody A against IgG1 isotype control, PC-3 cells
[18] = molecular target: T1, LIV-1 expressed on the cell surface of cancer cell lines (human); assay: flow cytometry, 10 µg/mL antibody, PC-3 cells (endogenous LIV-1)
[19] = molecular target: T1, LIV-1 expressed on the cell surface of cancer cell lines (human); assay: flow cytometry, 10 µg/mL antibody, MCF7-Liv1 #17 cells (high exogenous LIV-1)
[20] = molecular target: T1, LIV-1 expressed on the cell surface of cancer cell lines (human); assay: flow cytometry, antibody A against IgG1 isotype control, MCF7-Liv1 #12 cells
[21] = molecular target: human LIV-1 antigen (with a His tag, NP_036451.1, amino acids Phe229-Ile323) (human) (UniProt Q13433); assay: ForteBio (BLI)
[22] = molecular target: T2, LIV-1 expressed on the cell surface of cancer cell lines (human, UniProt Q13433 29-755); assay: cell-based or functional assay
T2 sequence (looked up): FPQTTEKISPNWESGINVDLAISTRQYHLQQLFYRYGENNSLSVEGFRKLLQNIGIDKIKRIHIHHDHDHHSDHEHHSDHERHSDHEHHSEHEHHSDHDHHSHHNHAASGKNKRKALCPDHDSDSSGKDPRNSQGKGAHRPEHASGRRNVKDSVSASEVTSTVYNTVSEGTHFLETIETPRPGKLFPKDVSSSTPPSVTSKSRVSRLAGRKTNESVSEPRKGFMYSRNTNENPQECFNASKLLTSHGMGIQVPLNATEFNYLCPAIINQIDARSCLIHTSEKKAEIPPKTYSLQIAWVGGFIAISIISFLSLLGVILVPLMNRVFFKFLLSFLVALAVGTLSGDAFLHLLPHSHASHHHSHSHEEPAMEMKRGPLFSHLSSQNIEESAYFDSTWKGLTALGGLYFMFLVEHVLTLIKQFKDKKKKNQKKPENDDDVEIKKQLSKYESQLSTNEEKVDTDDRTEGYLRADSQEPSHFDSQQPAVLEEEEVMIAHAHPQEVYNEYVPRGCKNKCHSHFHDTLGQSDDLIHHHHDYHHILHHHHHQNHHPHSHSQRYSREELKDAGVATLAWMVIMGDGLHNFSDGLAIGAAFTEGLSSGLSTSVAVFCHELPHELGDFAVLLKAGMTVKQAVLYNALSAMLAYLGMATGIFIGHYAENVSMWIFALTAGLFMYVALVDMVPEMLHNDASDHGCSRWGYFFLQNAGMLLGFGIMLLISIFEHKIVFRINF

non-specific isotype control commercial antibody IgG (BioXCell, BE0297)
MFI (RFU) [1]: 2180 RFU
MFI (RFU) [2]: 3410 RFU
MFI (RFU) [3]: 1510 RFU
MFI (RFU) [4]: 4440 RFU
MFI (RFU) [5]: 3120 RFU
MFI (RFU) [6]: 2840 RFU

B1: L-McMMAE: Ladiratuzumab antibody L conjugated to MC-MMAE, DAR of 3.5-4; prior-art ADC targeting Liv-1 (conjugate, chains of the INN, looked up)
VH: QVQLVQSGAEVKKPGASVKVSCKASGLTIEDYYMHWVRQAPGQGLEWMGWIDPENGDTEYGPKFQGRVTMTRDTSINTAYMELSRLRSDDTAVYYCAVHNAHYGTWFAYWGQGTLVTVSS
VL: DVVMTQSPLSLPVTLGQPASISCRSSQSLLHSSGNTYLEWYQQRPGQSPRPLIYKISTRFSGVPDRFSGSGSGTDFTLKISRVEAEDVGVYYCFQGSHVPYTFGGGTKVEIK
modifications: MC-MMAE payload
Tumor growth inhibition rate TGI% (day 24 after administration) [7]: 103.92%
Tumor growth inhibition rate TGI% (day 13 after administration) [8]: 26.68%

B2: Antibody A (antibody, human IgG1, kappa, V domains shown)
VH: EVQLVQSGAEVKKPGATVKISCKASGLNIEDYYMHWVQQAPGKGLEWMGWIDPENGDTEYAEKFQGRVTITADTSTNTAYMELSSLRSEDTAVYYCTVHNAHYGTWFAYWGQGTTVTVSS
VL: DIVMTQTPLSLSVTPGQPASISCRSSQTLVRSDGNTYLEWYLQKPGQSPQLLIYRVSNRFSGVPDRFSGSGSGTDFTLKISRVEAEDVGVYYCFQGSHVPYTFGGGTKLEIKR
MFI (RFU) [9]: 20900 RFU
MFI ratio (MFI of anti-LIV-1/MFI of control antibody) [10]: 38.7
MFI ratio (MFI of anti-LIV-1/MFI of control antibody) [11]: 2
MFI (RFU) [12]: 132000 RFU
MFI ratio (MFI of anti-LIV-1/MFI of control antibody) [13]: 2.5
MFI (RFU) [14]: 4420 RFU
MFI (RFU) [15]: 11100 RFU
MFI ratio (MFI of anti-LIV-1/MFI of control antibody) [16]: 71.1
MFI ratio (MFI of anti-LIV-1/MFI of control antibody) [17]: 2
MFI (RFU) [18]: 5660 RFU
MFI (RFU) [19]: 107000 RFU
MFI ratio (MFI of anti-LIV-1/MFI of control antibody) [20]: 6.7

B3: Antibody A-1 (antibody, human IgG1, kappa, V domains shown)
VH: EVQLVQSGAEVKKPGATVKISCKASGLNIEDYYMHWVQQAPGKGLEWMGWIDPENGDTEYAEKFQGRVTITADTSTDTAYMELSSLRSEDTAVYYCTVHNAHYGTWFAYWGQGTTVTVSS
VL: DIVMTQTPLSLSVTPGQPASISCRSSQTLVRSDGNTYLEWYLQKPGQSPQLLIYRVSNRFSGVPDRFSGSGSGTDFTLKISRVEAEDVGVYYCFQGSHVPYTFGGGTKLEIKR
Kd [21]: 0.0524 nM
koff [21]: 4.17e-05 s⁻¹
kon [21]: 796000 M⁻¹ s⁻¹

B4: A-BrAcMMAE (antibody, human IgG1, kappa, V domains shown)
VH: EVQLVQSGAEVKKPGATVKISCKASGLNIEDYYMHWVQQAPGKGLEWMGWIDPENGDTEYAEKFQGRVTITADTSTNTAYMELSSLRSEDTAVYYCTVHNAHYGTWFAYWGQGTTVTVSS
VL: DIVMTQTPLSLSVTPGQPASISCRSSQTLVRSDGNTYLEWYLQKPGQSPQLLIYRVSNRFSGVPDRFSGSGSGTDFTLKISRVEAEDVGVYYCFQGSHVPYTFGGGTKLEIKR
modifications: MMAE drug-linker (compound 11, bromoacetyl-Val-Cit-PAB-MMAE) on reduced cysteine sulfhydryls; average DAR 3.5-4; positions not given
IC50 (nM) for inhibition of proliferation, Calu6 cells, CellTiterGlo2 [22]: 11 nM
IC50 (nM) for inhibition of proliferation, MCF7-Liv1 #7 cells, CellTiterGlo2 [22]: 0.03 nM
IC50 (nM) for inhibition of proliferation, MCF7-Liv1 #12 cells, CellTiterGlo2 [22]: 0.031 nM
IC50 (nM) for inhibition of proliferation, MCF7-Liv1 #17 cells, CellTiterGlo2 [22]: 0.05 nM

Source: patent publication EP4682168A1, “ANTI-LIV-1 ANTIBODY AND ANTI-LIV-1 ANTIBODY-DRUG CONJUGATE, AND PHARMACEUTICAL USE THEREOF” (priority 2023, dated 2024)
